Measurements taken from patent publication US20200165324A1.

Columns and labels:
[1] = target: BG505 Env on BG505 pseudovirus (HIV isolate BG505)
[2] = target: JR-CSF Env on JR-CSF pseudovirus
[3] = target: gp120 (isolate 92BR020) (HIV-1 isolate 92BR020); experiment: ELISA on gp120 (isolate 92BR020), buffer pH 6
[4] = target: gp120 (isolate 92BR020) (HIV-1 isolate 92BR020); experiment: ELISA on gp120 (isolate 92BR020), buffer pH 5.5

Substance: 12A12 (antibody)
- IC50, pseudovirus neutralization (BG505 D474A): 0.02 µg/mL
- IC50, pseudovirus neutralization [1]: 0.02 µg/mL
- IC50, pseudovirus neutralization (BG505 G471A): 0.029 µg/mL
- IC50, pseudovirus neutralization (BG505 K121A): 0.053 µg/mL
- IC50, pseudovirus neutralization (BG505 K282A): 0.04 µg/mL
- IC50, pseudovirus neutralization (BG505 L179A): 0.056 µg/mL
- IC50, pseudovirus neutralization (BG505 L369A): 0.03 µg/mL
- IC50, pseudovirus neutralization (BG505 N262A): 0.017 µg/mL
- IC50, pseudovirus neutralization (BG505 N276A): 0.003 µg/mL
- IC50, pseudovirus neutralization (BG505 N279A): 0.058 µg/mL
- IC50, pseudovirus neutralization (BG505 N332T): 0.031 µg/mL
- IC50, pseudovirus neutralization (BG505 N363A): 0.038 µg/mL
- IC50, pseudovirus neutralization (BG505 R476A): 0.026 µg/mL
- IC50, pseudovirus neutralization (BG505 S364A): 0.032 µg/mL
- IC50, pseudovirus neutralization (BG505 S365A): 0.057 µg/mL
- IC50, pseudovirus neutralization (BG505 T372A): 0.037 µg/mL
- IC50, pseudovirus neutralization (BG505 T373A): 0.039 µg/mL
- IC50, pseudovirus neutralization (JR-CSF D279A): > 50 µg/mL
- IC50, pseudovirus neutralization (JR-CSF D474A): 0.075 µg/mL
- IC50, pseudovirus neutralization [2]: 0.219 µg/mL
- IC50, pseudovirus neutralization (JR-CSF G471A): 0.114 µg/mL
- IC50, pseudovirus neutralization (JR-CSF K207A): 0.383 µg/mL
- IC50, pseudovirus neutralization (JR-CSF K282A): 2.33 µg/mL
- IC50, pseudovirus neutralization (JR-CSF M373A): 0.134 µg/mL
- IC50, pseudovirus neutralization (JR-CSF N276A): 2.72 µg/mL
- IC50, pseudovirus neutralization (JR-CSF N283A): 0.219 µg/mL
- IC50, pseudovirus neutralization (JR-CSF N362A): 0.11 µg/mL
- IC50, pseudovirus neutralization (JR-CSF P369A): 0.205 µg/mL
- IC50, pseudovirus neutralization (JR-CSF R476A): 0.082 µg/mL
- IC50, pseudovirus neutralization (JR-CSF S199A): 0.032 µg/mL
- IC50, pseudovirus neutralization (JR-CSF S365A): 0.18 µg/mL
- IC50, pseudovirus neutralization (JR-CSF T198A): 0.622 µg/mL
- IC50, pseudovirus neutralization (JR-CSF V372A): 0.214 µg/mL
- EC50 (read off the curve) [3]: 0.4 µg/mL
- EC50 (read off the curve) [4]: 0.4 µg/mL
